Data reported in patent publication US20070087448.

How the values were obtained:
[1] = target: T1, human apolipoprotein C1, common form (m/z=6631)
T1 chain: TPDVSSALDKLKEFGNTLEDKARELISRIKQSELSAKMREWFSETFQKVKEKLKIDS

[2] = target: T2, T45S variant of human apolipoprotein C1 (low mass variant, m/z=6617/6618)
T2 chain: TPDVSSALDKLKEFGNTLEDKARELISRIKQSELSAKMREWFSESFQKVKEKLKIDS

[3] = target: plasma peptide at m/z=5082±4

B1: hog kidney dipeptidyl peptidase IV (DPPase IV), purchased from the Sigma Chemical Company (protein)
chain: DSRRTYTLTDYLKSTFRVKFYTLQWISDHEYLYKQENNILLFNAEYGNSSIFLENSTFDELGYSTNDYSVSPDRQFILFEYNYVKQWRHSYTASYDIYDLNKRQLITEERIPNNTQWITWSPVGHKLAYVWNNDIYVKNEPNLSSQRITWTGKENVIYNGVTDWVYEEEVFSAYSALWWSPNGTFLAYAQFNDTEVPLIEYSFYSDESLQYPKTVRIPYPKAGAENPTVKFFVVDTRTLSPNASVTSYQIVPPASVLIGDHYLCGVTWVTEERISLQWIRRAQNYSIIDICDYDESTGRWISSVARQHIEISTTGWVGRFRPAEPHFTSDGNSFYKIISNEEGYKHICHFQTDKSNCTFITKGAWEVIGIEALTSDYLYYISNEHKGMPGGRNLYRIQLNDYTKVTCLSCELNPERCQYYSASFSNKAKYYQLRCFGPGLPLYTLHSSSSDKELRVLEDNSALDKMLQDVQMPSKKLDVINLHGTKFWYQMILPPHFDKSKKYPLLIEVYAGPCSQKVDTVFRLSWATYLASTENIIVASFDGRGSGYQGDKIMHAINRRLGTFEVEDQIEATRQFSKMGFVDDKRIAIWGWSYGGYVTSMVLGAGSGVFKCGIAVAPVSKWEYYDSVYTERYMGLPTPEDNLDYYRNSTVMSRAENFKQVEYLLIHGTADDNVHFQQSAQLSKALVDAGVDFQTMWYTDEDHGIASNMAHQHIYTHMSHFLKQCFSLP
B1 was tested, and the “MALDI-TOF profile after incubation of human plasma with the enzyme (conversion of the 6631 peak to the 6433 peak)” value [1] was “The enzyme converted all of the material in the peak at 6631 to material in the 6433 peak”, the “rate of enzyme cleavage (m/z=6631 conversion to m/z=6433), reference for the T45S variant” value [1] was “degradation of the more common form of apolipoprotein C1 (m/z=6631 conversion to m/z=6433)” and the “rate of enzyme cleavage (m/z=6618 conversion to m/z=6420) relative to the common form of apolipoprotein C1” value [2] was 3.1 times the rate of degradation of the more common form of apolipoprotein C1. The “MALDI-TOF profile after 2 hours of digestion of diluted plasma with 1 unit of enzyme” value [3] was “The 5082 peak had been completely digested to the 4885 peak”.
